Results from PMC3162248.

Experiments:
[1] = substrate: NC(=O)c1ccc[n+]([C@@H]2O[C@H](COP(=O)(O)O)[C@@H](O)[C@H]2O)c1; assay: purified protein; format: biochemical, Mus musculus; conditions: 1 mM ATP, 20 mM MgCl2, 20 mM HEPES-KOH pH 7.4, 37°C
[2] = substrate: Nc1ncnc2c1ncn2[C@@H]1O[C@H](COP(=O)(O)OP(=O)(O)OP(=O)(O)O)[C@@H](O)[C@H]1O; assay: purified protein; format: biochemical, Mus musculus; conditions: 1 mM NMN, 20 mM MgCl2, 20 mM HEPES-KOH pH 7.4, 37°C

B1: Nmnat1 (mouse Nmnat1) (Mus musculus) (protein)
chain: MDSSKKTEVVLLACGSFNPITNMHLRLFELAKDYMHATGKYSVIKGIISPVGDAYKKKGLIPAHHRIIMAELATKNSHWVEVDTWESLQKEWVETVKVLRYHQEKLATGSCSYPQSSPALEKPGRKRKWADQKQDSSPQKPQEPKPTGVPKVKLLCGADLLESFSVPNLWKMEDITQIVANFGLICITRAGSDAQKFIYESDVLWRHQSNIHLVNEWITNDISSTKIRRALRRGQSIRYLVPDLVQEYIEKHELYNTESEGRNAGVTLAPLQRNAAEAKHNHSTL
Work on B1 yielded a Km [1] of 27.6 µM and a Km [2] of 50.4 µM.

B2: Nmnat1 (mouse Nmnat1) (Mus musculus; H24A) (protein)
chain: MDSSKKTEVVLLACGSFNPITNMALRLFELAKDYMHATGKYSVIKGIISPVGDAYKKKGLIPAHHRIIMAELATKNSHWVEVDTWESLQKEWVETVKVLRYHQEKLATGSCSYPQSSPALEKPGRKRKWADQKQDSSPQKPQEPKPTGVPKVKLLCGADLLESFSVPNLWKMEDITQIVANFGLICITRAGSDAQKFIYESDVLWRHQSNIHLVNEWITNDISSTKIRRALRRGQSIRYLVPDLVQEYIEKHELYNTESEGRNAGVTLAPLQRNAAEAKHNHSTL
With B2 the Km [2] was 47.3 µM.

B3: Nmnat1 (mouse Nmnat1) (Mus musculus; W170A) (protein)
chain: MDSSKKTEVVLLACGSFNPITNMHLRLFELAKDYMHATGKYSVIKGIISPVGDAYKKKGLIPAHHRIIMAELATKNSHWVEVDTWESLQKEWVETVKVLRYHQEKLATGSCSYPQSSPALEKPGRKRKWADQKQDSSPQKPQEPKPTGVPKVKLLCGADLLESFSVPNLAKMEDITQIVANFGLICITRAGSDAQKFIYESDVLWRHQSNIHLVNEWITNDISSTKIRRALRRGQSIRYLVPDLVQEYIEKHELYNTESEGRNAGVTLAPLQRNAAEAKHNHSTL
With B3 the Km [1] was 1400 µM.
